Data from PMC6819594, “Screening antiproliferative drug for breast cancer from bisbenzylisoquinoline alkaloid tetrandrine and fangchinoline derivatives by targeting BLM helicase” (BMC Cancer, 2019).

Target: BLM642-1290 helicase (UniProt P54132 642-1290)
Experiment: fluorescence anisotropy; mitomycin C (no significant effect); 20 mM Tris pH 7.9, 25 mM NaCl, 3 mM MgCl2, 0.1 mM DTT; EMSA at room temperature 45 min; FP temperature not stated
Details: protein: recombinant; label: 3' fluorescein (FAM) on strand 2; 3' overhang 24 nt on strand 1; 21 bp duplex

BLM642-1290 helicase, sequence (P54132 642-1290): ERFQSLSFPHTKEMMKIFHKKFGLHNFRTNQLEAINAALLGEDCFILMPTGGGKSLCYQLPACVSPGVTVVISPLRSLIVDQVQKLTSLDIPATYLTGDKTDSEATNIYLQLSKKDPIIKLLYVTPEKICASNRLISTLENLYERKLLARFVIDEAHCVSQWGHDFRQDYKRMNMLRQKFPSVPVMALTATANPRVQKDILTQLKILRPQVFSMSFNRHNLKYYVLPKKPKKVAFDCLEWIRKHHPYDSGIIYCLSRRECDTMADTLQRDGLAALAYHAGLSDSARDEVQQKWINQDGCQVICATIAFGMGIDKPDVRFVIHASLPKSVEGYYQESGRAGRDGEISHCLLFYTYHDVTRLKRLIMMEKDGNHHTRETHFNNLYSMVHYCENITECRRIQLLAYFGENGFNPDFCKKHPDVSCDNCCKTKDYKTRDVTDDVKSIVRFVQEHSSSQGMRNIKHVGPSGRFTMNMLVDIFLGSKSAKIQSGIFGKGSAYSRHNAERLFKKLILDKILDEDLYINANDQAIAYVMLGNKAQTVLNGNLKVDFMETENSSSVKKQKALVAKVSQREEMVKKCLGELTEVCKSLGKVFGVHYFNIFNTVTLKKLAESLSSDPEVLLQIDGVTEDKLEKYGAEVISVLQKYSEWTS

B1: dsDNA A1A2 (dsDNA)
DNA 1: AATCCGTCGAGCAGAGTTAGGTTAGGTTAGGTTAGTTTTTTTTTT
DNA 2: CCTAACTCTGCTCGACGGATT
  binding result: binds
